Measured values: publication PMC11756183

Assay: IP and western blot in MSC-T
Conditions: glycan lost; control: wild-type GPNMB (MSC-T/OEG)

B1: GPNMB (Glycoprotein non-metastatic melanoma protein B): N249Q (protein)
parent chain: MESLCGVLGFLLLAAGLPLQAAKRFRDVLGHEQYPDHMREHNQLRGWSSDENEWDEHLYPVWRRGDGRWKDSWEGGRVQAVLTSDSPALVGSNITFVVNLVFPRCQKEDANGNIVYEKNCRNDLGLTSDLHVYNWTAGADDGDWEDGTSRSQHLRFPDRRPFPRPHGWKKWSFVYVFHTLGQYFQKLGRCSARVSINTVNLTAGPQVMEVTVFRRYGRAYIPISKVKDVYVITDQIPVFVTMSQKNDRNLSDEIFLRDLPIVFDVLIHDPSHFLNDSAISYKWNFGDNTGLFVSNNHTLNHTYVLNGTFNLNLTVQTAVPGPCPPPSPSTPPPPSTPPSPPPSPLPTLSTPSPSLMPTGYKSMELSDISNENCRINRYGYFRATITIVEGILEVSIMQIADVPMPTPQPANSLMDFTVTCKGATPMEACTIISDPTCQIAQNRVCSPVAVDGLCLLSVRRAFNGSGTYCVNFTLGDDASLALTSTLISIPGKDPDSPLRAVNGVLISIGCLAVLVTMVTILLYKKHKAYKPIGNCPRNTVKGKGLSVLLSHAKAPFFRGDQEKDPLLQDKPRTL
expression_or_secretion: decreases
